Drawing on publication PMC2626280, this text covers Kd and stoichiometry N for 4 substances.

Assay [1] addresses purified skeletal muscle actin (rabbit) (UniProt P68135). Kind of assay: inhibition of actin polymerization (ultracentrifugation assay); apparent; skeletal muscle actin (18 µM) with increasing GST-RPEL (350–422 aa); 100 mM KCl, 2 mM MgCl2, 10 mM Tris-HCl pH 7.8, 20°C 60 min (legend: room temperature 30 minutes); 130,000 g 15 min; fraction of depolymerized actin by densitometry, nonlinear regression.

Assay [2] addresses actin (Oryctolagus cuniculus) (UniProt P68135). As to conditions: cited from earlier work.
The target is the same in assay [3]. The settings on record: cited from earlier work. This is another data set of the same source.
Assay [4] has the same target. As to conditions: cited from earlier work. The source holds these as a separate data set.

In general, stoichiometry N refers to the number of molecules, sites or subunits per partner or assembly.

Like-named read-outs stand apart in the source and are kept apart here.

With “GST-RPEL construct of scapinin, 350–422 aa (domain or fragment)”, in assay [1], the Kd was found to be 0.018 µM and the stoichiometry N turned out to be 1.21. Turning to MAL RPEL1 (from UniProt Q8K4J6), the Kd in assay [2] was 5.4 µM. For MAL RPEL2 (from UniProt Q8K4J6), the Kd in assay [3] is 2.3 µM. Regarding MAL RPEL3 (from UniProt Q8K4J6), in assay [4], the Kd is 18.8 µM.
